Data from US11161912B2, “Heparanase-neutralizing monoclonal antibodies” (Technion Research & Development Foundation Limited, priority 2015, dated 2021).
Entries after “also recorded” stand apart in the source; their conditions may differ.

How the values were obtained:
[1] = system: heparanase (latent 65 kDa or GS3 constitutively active); experiment: Cellular uptake and processing of heparanase in HEK 293 cells (immunoblot); assay type: cell-based; conditions: GS3 1 μg/ml, mAb 10 μg/ml
From the text: (§1) Development of heparanase-neutralizing monoclonal antibodies: In order to target heparanase activity even more specifically, a panel of monoclonal antibodies (mAb) directed against the KKDC peptide (Lys158-Asn171) which comprises the substrate (HS)-binding domain of heparanase (Levy-Adam F, et al. 2005, J Biol Chem 280(21):20457-20466) were developed. In order to validate that the resulting antibodies target the heparin/HS binding domain, cellular uptake of latent 65 kDa heparanase in the absence or presence of the various newly generated mAbs was tested. This system appeared most relevant because previous studies have shown that heparanase uptake is HS-dependent (Gingis-Velitski S, et al. 2004. J Biol Chem 279(42):44084-44092). […] Moreover, liver metastasis of ESb cells was inhibited 4-5 fold by mAb 9E8 (FIG. 3C). The availability of highly specific heparanase-neutralizing mAbs led to the conclusion that heparanase enzymatic activity is required for cell invasion and tumor metastasis.
(§2) FIG. 3A. HEK 293 cells were incubated with latent 65 kDa (upper panel) or GS3 constitutively active heparanase (1 μg/ml; third panel) and the indicated mAbs (10 μg/ml). […] The mixture was then applied onto ^35S-labeled ECM-coated dishes and heparanase activity was determined as described above (lower panel). […] Quantification of the extent of CD45 staining is shown graphically in the lower panel. […]

[2] = biological target: T1, heparanase (latent 65 kDa or GS3 constitutively active) (Homo sapiens, UniProt Q9Y251); experiment: as above; assay type: cell-based; conditions: mAb 10 μg/ml
T1 construct: host or cells: added exogenously to HEK 293 cells
T1 sequence (Q9Y251 36-543): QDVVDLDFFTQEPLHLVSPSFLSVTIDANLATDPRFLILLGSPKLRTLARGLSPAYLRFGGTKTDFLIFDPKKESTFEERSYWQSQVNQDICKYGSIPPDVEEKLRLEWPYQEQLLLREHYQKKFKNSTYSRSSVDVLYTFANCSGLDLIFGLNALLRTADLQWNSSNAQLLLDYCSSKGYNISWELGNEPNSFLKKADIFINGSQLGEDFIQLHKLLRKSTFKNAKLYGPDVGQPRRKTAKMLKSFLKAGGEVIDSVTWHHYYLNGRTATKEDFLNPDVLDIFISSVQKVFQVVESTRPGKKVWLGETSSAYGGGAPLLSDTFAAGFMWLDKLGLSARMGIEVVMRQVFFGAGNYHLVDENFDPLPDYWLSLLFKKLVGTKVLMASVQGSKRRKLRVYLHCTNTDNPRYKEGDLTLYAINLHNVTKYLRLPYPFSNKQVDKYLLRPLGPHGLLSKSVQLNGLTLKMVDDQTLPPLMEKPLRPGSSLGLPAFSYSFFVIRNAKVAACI
From the text: as §1, §2

[3] = system: CAG myeloma cells; experiment: CAG-luciferase myeloma, tail vein inoculation, tumor burden by IVIS imaging; assay type: in vivo, human; conditions: mAb 600 μg/mouse every other day
Method: Tumorigenicity. Luciferase-labelled CAG myeloma (5×10^6) or Raji lymphoma (1×10^6) cells were injected into the tail vein of NOD/SCID mice (n=5). Mice were treated with PG545 (20 mg/kg, once weekly), mAb 9E8 (600 μg/mouse) every other day starting one day following cell inoculation and tumor growth was examined by IVIS imaging. At termination, mice were sacrificed, the backbones were excised, fixed in formalin and following de-calcification with 10% EDTA solution were embedded in paraffin and subjected to histological and immunohistochemical analyses essentially as described (Weissmann et al, 2016, Proc Natl Acad Sci USA 113:704-709). […]
IVIS imaging. […] Light emitted from the bioluminescent cells was detected by the IVIS camera system with images quantified for tumor burden using a log-scale color range set at 5×10^4 to 1×10^7 and measurement of total photon counts per second (PPS) using Living Image software (Xenogen) (Weissmann et al, 2016, Proc Natl Acad Sci USA 113:704-709).
FIG. 6A. […] Tumor growth was evaluated by IVIS imaging (left panels). Quantification of luciferase signals is shown graphically in the right panel. […] Bone marrow was harvested from C57Bl/6 mice, cells were collected by centrifugation and heparanase activity was determined as described under ‘Materials and Methods’ (left panel). […]

B1: mAb 9E8: monoclonal IgM raised against KKDC peptide (Lys158-Asn171) of heparanase; VH SEQ ID NO: 7, VL SEQ ID NO: 8 (antibody)
VH: EVKLLESGGGLVQPGGSLKLSCAASGFDFSRYWMSWVRQAPGKGLEWIGEINPDSSTINYTPSLKDKFIISRDNAKNTLYLQMSKVRSEDTALYYCARRGYEGNYAMDYWGQGTSVTVSSESQSFPNVFPLVSCESPLSDKNLVAMGCLAR
VL: DIVMTQAAPSVPVTPGESVSISCRSSKSLLHSNGNTYLYWFLQRPGQSPQLLIYRMSNLASGVPDRFSGSGSGTAFTLRISRVEAEDVGVYYCMQHLEYPFTFGSGTKLEIKRADAAPTVSIFPPSSEQLTSGGASVVCFL
modifications: IgM constant regions
uptake of constitutively active heparanase (GS3) [1]: inhibited profoundly | uptake and processing of latent 65 kDa heparanase [2]: markedly decreased; also recorded: almost complete inhibition | decrease in tumor burden (luciferase signal) [3]: 2-3 fold
